{"source": "patent US20260217835", "proteins": {"B1": {"name": "full-length IgG heavy chain with CH3 modification Y349C/E357C/K392D/D399K (SEQ ID NO: 51), coexpressed with light chain SEQ ID NO: 61 (protein)", "chain 1": "QVQLQESGPGLVRPSQTLSLTCTVSGYSITSDHAWSWVRQPPGRGLEWIGYISYSGITTYNPSLKSRVTMLRDTSKNQFSLRLSSVTAADTAVYYCARSLARTTAMDYWGQGSLVTVSSASTKGPSVFPLAPSSKSTSGGTAALGCLVKDYFPEPVTVSWNSGALTSGVHTFPAVLQSSGLYSLSSVVTVPSSSLGTQTYICNVNHKPSNTKVDKRVEPKSCDKTHTCPPCPAPELLGGPSVFLFPPKPKDTLMISRTPEVTCVVVDVSHEDPEVKFNWYVDGVEVHNAKTKPREEQYNSTYRVVSVLTVLHQDWLNGKEYKCKVSNKALPAPIEKTISKAKGQPREPQVCTLPPSRECMTKNQVSLTCLVKGFYPSDIAVEWESNGQPENNYDTTPPVLKSDGSFFLYSKLTVDKSRWQQGNVFSCSVMHEALHNHYTQKSLSLSP", "chain 2": "not shown"}, "B2": {"name": "full-length IgG heavy chain with CH3 modification T350V/L351Y/T366L/K392L/T394W/F405A/Y407V (SEQ ID NO: 60), coexpressed with light chain SEQ ID NO: 61 (protein)", "chain 1": "B1 chain 1 with C351Y, T352V, L353Y, C359E, T368L, D394L, T396W, K401D, F407A, Y409V", "chain 2": "not shown"}, "B3": {"name": "full-length IgG heavy chain with CH3 modification E345R/Q347R/K360D/T366V/D399M/Y407A/K409V (SEQ ID NO: 55), coexpressed with light chain SEQ ID NO: 61 (protein)", "chain 1": "B1 chain 1 with E347R, Q349R, C351Y, C359E, K362D, T368V, D394K, K401M, Y409A, K411V", "chain 2": "not shown"}, "B4": {"name": "full-length IgG heavy chain with CH3 modification E356K/K392D/D399K/K409D (SEQ ID NO: 56), coexpressed with light chain SEQ ID NO: 61 (protein)", "chain 1": "B1 chain 1 with C351Y, E358K, C359E, K411D", "chain 2": "not shown"}, "B5": {"name": "full-length IgG heavy chain with CH3 modification E345R/K360E/D399M/Y407A/K409V (SEQ ID NO: 58), coexpressed with light chain SEQ ID NO: 61 (protein)", "chain 1": "B1 chain 1 with E347R, C351Y, C359E, K362E, D394K, K401M, Y409A, K411V", "chain 2": "not shown"}}, "note": "Residue numbers refer to the chain shown, from its start. Numbers in names are those of the source.", "data": [{"molecular_target": "IgG1 Fc fragment, WT (no CH3 modification), SEQ ID NO: 63 in Table 5", "assay": "SEC area ratio of heteromultimer after coexpression of full-length heavy chain, light chain and Fc fragment in Expi293F", "units": {"heterodimer formation ratio (%)": "%"}, "values": [{"protein": "B1", "heterodimer formation ratio (%)": 0}, {"protein": "B2", "heterodimer formation ratio (%)": 0}, {"protein": "B3", "heterodimer formation ratio (%)": 0}, {"protein": "B4", "heterodimer formation ratio (%)": 0}, {"protein": "B5", "heterodimer formation ratio (%)": 0}]}, {"molecular_target": "T1, IgG1 Fc fragment with CH3 modification Q347E/S354Y/T366Y/Y407T (SEQ ID NO: 69)", "T1 chain": "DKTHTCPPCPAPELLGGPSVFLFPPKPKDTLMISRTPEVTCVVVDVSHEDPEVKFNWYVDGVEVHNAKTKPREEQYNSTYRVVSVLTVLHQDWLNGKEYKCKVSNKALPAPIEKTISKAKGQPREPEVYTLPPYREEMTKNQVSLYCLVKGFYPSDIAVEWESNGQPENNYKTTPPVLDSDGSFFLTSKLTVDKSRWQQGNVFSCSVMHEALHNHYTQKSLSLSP", "assay": "SEC area ratio of heteromultimer after coexpression of full-length heavy chain, light chain and Fc fragment in Expi293F", "units": {"heterodimer formation ratio (%)": "%"}, "values": [{"protein": "B1", "heterodimer formation ratio (%)": 0}, {"protein": "B2", "heterodimer formation ratio (%)": 0}, {"protein": "B3", "heterodimer formation ratio (%)": 0}, {"protein": "B4", "heterodimer formation ratio (%)": 0}, {"protein": "B5", "heterodimer formation ratio (%)": 0}]}, {"molecular_target": "T2, IgG1 Fc fragment with CH3 modification E356K/D399K/K409E/K439E (SEQ ID NO: 68)", "T2 chain": "T1 chain with E127Q, Y134S, E136K, Y146T, D179K, T187Y, K189E, K219E", "assay": "SEC area ratio of heteromultimer after coexpression of full-length heavy chain, light chain and Fc fragment in Expi293F", "units": {"heterodimer formation ratio (%)": "%"}, "values": [{"protein": "B1", "heterodimer formation ratio (%)": 0}, {"protein": "B2", "heterodimer formation ratio (%)": 0}, {"protein": "B3", "heterodimer formation ratio (%)": 0}, {"protein": "B4", "heterodimer formation ratio (%)": 53}, {"protein": "B5", "heterodimer formation ratio (%)": 0}]}, {"molecular_target": "T3, IgG1 Fc fragment with CH3 modification K392D/D399K/K409D (SEQ ID NO: 72)", "T3 chain": "T1 chain with E127Q, Y134S, Y146T, K172D, D179K, T187Y, K189D", "assay": "SEC area ratio of heteromultimer after coexpression of full-length heavy chain, light chain and Fc fragment in Expi293F", "units": {"heterodimer formation ratio (%)": "%"}, "values": [{"protein": "B1", "heterodimer formation ratio (%)": 9}, {"protein": "B2", "heterodimer formation ratio (%)": 0}, {"protein": "B3", "heterodimer formation ratio (%)": 0}, {"protein": "B4", "heterodimer formation ratio (%)": 51}, {"protein": "B5", "heterodimer formation ratio (%)": 3}]}, {"molecular_target": "T4, IgG1 Fc fragment with CH3 modification E345R/Q347R/K360D/T366V/D399M/Y407A/K409V (SEQ ID NO: 74)", "T4 chain": "T1 chain with E125R, E127R, Y134S, K140D, Y146V, D179M, T187A, K189V", "assay": "SEC area ratio of heteromultimer after coexpression of full-length heavy chain, light chain and Fc fragment in Expi293F", "units": {"heterodimer formation ratio (%)": "%"}, "values": [{"protein": "B1", "heterodimer formation ratio (%)": 2}, {"protein": "B2", "heterodimer formation ratio (%)": 0}, {"protein": "B3", "heterodimer formation ratio (%)": 52}, {"protein": "B4", "heterodimer formation ratio (%)": 0}, {"protein": "B5", "heterodimer formation ratio (%)": 51}]}]}
